T1: FcγRIIb extracellular domain with C-terminal His tag (human, UniProt P31994 43-217)
T1 construct: extracellular domain; also called 2b; FcgRIIb; not shown: His tag at the C terminus
T1 sequence (looked up): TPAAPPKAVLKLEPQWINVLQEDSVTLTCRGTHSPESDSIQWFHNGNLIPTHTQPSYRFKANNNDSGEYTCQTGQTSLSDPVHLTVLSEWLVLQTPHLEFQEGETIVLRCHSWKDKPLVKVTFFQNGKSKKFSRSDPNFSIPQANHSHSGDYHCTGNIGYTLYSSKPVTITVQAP

T2: FcγRIIb extracellular domain with C-terminal His tag (human, UniProt P31994 43-217)
T2 construct: extracellular domain; also called FcgRIIb; 2b; not shown: His tag attached to the C terminus
T2 sequence (looked up): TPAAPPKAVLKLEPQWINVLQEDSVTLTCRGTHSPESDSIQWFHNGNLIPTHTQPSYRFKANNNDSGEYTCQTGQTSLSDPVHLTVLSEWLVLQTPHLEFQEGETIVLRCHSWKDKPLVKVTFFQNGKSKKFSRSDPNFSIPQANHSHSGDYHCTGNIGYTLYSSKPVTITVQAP


Columns and labels:
[1] = target: T3, FcγRIIIa extracellular domain with C-terminal His tag (human, UniProt P08637 17-208); test: SPR (Biacore), relative to GpH7-A5/GpH7-B3/GpL16-k0 = 100
T3 construct: extracellular domain; also called 3a; FcgRIIIa; not shown: His tag at the C terminus
T3 sequence (P08637 17-208): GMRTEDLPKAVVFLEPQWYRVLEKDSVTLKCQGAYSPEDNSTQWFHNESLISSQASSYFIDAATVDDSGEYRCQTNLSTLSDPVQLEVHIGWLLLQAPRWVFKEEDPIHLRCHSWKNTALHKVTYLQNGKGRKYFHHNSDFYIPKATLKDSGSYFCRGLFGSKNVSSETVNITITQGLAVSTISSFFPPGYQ

[2] = target: T1, FcγRIIb extracellular domain with …; test: as above
[3] = target: T3, FcγRIIIa extracellular domain with …; test: SPR (Biacore); ratio of He/Con_3a (FcγRIIIa) to He/Con_2b (FcγRIIb)
[4] = target: T2, FcγRIIb extracellular domain with …; test: SPR (Biacore), antibody captured on antigen peptide chip, FcγR as analyte; relative binding
Procedure: (§1) The heterodimerized antibodies He Abs in which one of the H chains was introduced with an alteration were assayed for their binding activities to each activating FcγR and inhibitory FcγR according to the method described in Example 4. […] The activating FcγRs in FIGS. 26, 27, 28, and 29 are FcγRIa, FcγRIIa (R), FcγRIIa (H), and FcγRIIIa, respectively.
(§2) Analysis of interaction between objective antibody and the FcγR was carried out using Biacore T100 (GE Healthcare). HBS-EP+ (GE Healthcare) was used as the running buffer, and the measurement temperature was set to 25° C. Chips produced by immobilizing the antigen peptide by the amine coupling method to a Series S Sencor Chip CM5 (GE Healthcare), or alternatively, chips produced by allowing preliminarily biotinylated antigen peptides to interact with and immobilize onto a Series S Sensor Chip SA (certified) (GE Healthcare) were used. Antibodies of interest were captured onto an antigen peptide-immobilized chip, and allowed to interact to each FcγR diluted with running buffer. To regenerate and repeatedly use the chip, the antibodies captured on the chip were washed off by reacting 10 mM glycine-HCl, pH 1.5.

[5] = target: T4, FcγRIIIa extracellular domain with C-terminal His tag (human, UniProt P08637 17-208); test: as above
T4 construct: extracellular domain; also called FcgRIIIa; 3a; not shown: His tag attached to the C terminus
Procedure: as §1, §2
T4 sequence (P08637 17-208): as above

Row | He/Con_3a [1] | He/Con_2b [2] | He_3a/2b (IIIa/IIb) [3] | He/Con_2b [4] | He/Con_3a [5] | Binder
1 | 80.6 % (control = 100) | 149 % (control = 100) | 0.54 |  |  | GpH7-A5/GpH7-B3 variant L235_15Y/GpL16-k0 (antibody, human IgG1, kappa, IgG1, anti-glypican-3; also called He Ab) heavy 1: not shown heavy 2: not shown light: DIVMTQSPLSLPVTPGEPASISCQASESLVHSNRNTYLHWYLQKPGQSPQLLIYKVSNRFSGVPDRFSGSGSGTDFTLKISRVEAEDVGVYYCSQNTHVPPTFGQGTKVEIERTVAAPSVFIFPPSDEQLKSGTASVVCLLNNFYPREAKVQWKVDNALQSGNSQESVTEQDSKDSTYSLSSTLTLSKADYEKHKVYACEVTHQGLSSPVTKSFNRGEC
2 |  |  |  | 142 % of GpH7-A5/GpH7-B3/GpL16-k0 (=100) | 78.6 % of GpH7-A5/GpH7-B3/GpL16-k0 (=100) | GpH7-A5/GpH7-B3 variant L328_06M/GpL16-k0 (He Ab) (antibody, human IgG1, kappa, Heterodimerized antibody with the alteration in one H chain only) heavy 1: not shown heavy 2: not shown light: DIVMTQSPLSLPVTPGEPASISCQASESLVHSNRNTYLHWYLQKPGQSPQLLIYKVSNRFSGVPDRFSGSGSGTDFTLKISRVEAEDVGVYYCSQNTHVPPTFGQGTKVEIERTVAAPSVFIFPPSDEQLKSGTASVVCLLNNFYPREAKVQWKVDNALQSGNSQESVTEQDSKDSTYSLSSTLTLSKADYEKHKVYACEVTHQGLSSPVTKSFNRGEC
3 | 59.1 % (control = 100) | 76.9 % (control = 100) | 0.77 |  |  | GpH7-A5/GpH7-B3 variant L235_16H/GpL16-k0 (antibody, human IgG1, kappa, IgG1, anti-glypican-3; also called He Ab) heavy 1: not shown heavy 2: not shown light: DIVMTQSPLSLPVTPGEPASISCQASESLVHSNRNTYLHWYLQKPGQSPQLLIYKVSNRFSGVPDRFSGSGSGTDFTLKISRVEAEDVGVYYCSQNTHVPPTFGQGTKVEIERTVAAPSVFIFPPSDEQLKSGTASVVCLLNNFYPREAKVQWKVDNALQSGNSQESVTEQDSKDSTYSLSSTLTLSKADYEKHKVYACEVTHQGLSSPVTKSFNRGEC
4 |  |  |  | 70.9 % of GpH7-A5/GpH7-B3/GpL16-k0 (=100) | 45.1 % of GpH7-A5/GpH7-B3/GpL16-k0 (=100) | GpH7-A5/GpH7-B3 variant I332_11K/GpL16-k0 (He Ab) (antibody, human IgG1, kappa, Heterodimerized antibody with the alteration in one H chain only) heavy 1: not shown heavy 2: not shown light: DIVMTQSPLSLPVTPGEPASISCQASESLVHSNRNTYLHWYLQKPGQSPQLLIYKVSNRFSGVPDRFSGSGSGTDFTLKISRVEAEDVGVYYCSQNTHVPPTFGQGTKVEIERTVAAPSVFIFPPSDEQLKSGTASVVCLLNNFYPREAKVQWKVDNALQSGNSQESVTEQDSKDSTYSLSSTLTLSKADYEKHKVYACEVTHQGLSSPVTKSFNRGEC
5 | 33 % (control = 100) | 56 % (control = 100) | 0.59 |  |  | GpH7-A5/GpH7-B3 variant P238_01G/GpL16-k0 (antibody, human IgG1, kappa, IgG1, anti-glypican-3; also called He Ab) heavy 1: not shown heavy 2: not shown light: DIVMTQSPLSLPVTPGEPASISCQASESLVHSNRNTYLHWYLQKPGQSPQLLIYKVSNRFSGVPDRFSGSGSGTDFTLKISRVEAEDVGVYYCSQNTHVPPTFGQGTKVEIERTVAAPSVFIFPPSDEQLKSGTASVVCLLNNFYPREAKVQWKVDNALQSGNSQESVTEQDSKDSTYSLSSTLTLSKADYEKHKVYACEVTHQGLSSPVTKSFNRGEC
6 |  |  |  | 141 % of GpH7-A5/GpH7-B3/GpL16-k0 (=100) | 75.3 % of GpH7-A5/GpH7-B3/GpL16-k0 (=100) | GpH7-A5/GpH7-B3 variant L328_14T/GpL16-k0 (He Ab) (antibody, human IgG1, kappa, Heterodimerized antibody with the alteration in one H chain only) heavy 1: not shown heavy 2: not shown light: DIVMTQSPLSLPVTPGEPASISCQASESLVHSNRNTYLHWYLQKPGQSPQLLIYKVSNRFSGVPDRFSGSGSGTDFTLKISRVEAEDVGVYYCSQNTHVPPTFGQGTKVEIERTVAAPSVFIFPPSDEQLKSGTASVVCLLNNFYPREAKVQWKVDNALQSGNSQESVTEQDSKDSTYSLSSTLTLSKADYEKHKVYACEVTHQGLSSPVTKSFNRGEC
7 |  |  |  | 102 % of GpH7-A5/GpH7-B3/GpL16-k0 (=100) | 74.8 % of GpH7-A5/GpH7-B3/GpL16-k0 (=100) | GpH7-A5/GpH7-B3 variant P331_06M/GpL16-k0 (He Ab) (antibody, human IgG1, kappa, Heterodimerized antibody with the alteration in one H chain only) heavy 1: not shown heavy 2: not shown light: DIVMTQSPLSLPVTPGEPASISCQASESLVHSNRNTYLHWYLQKPGQSPQLLIYKVSNRFSGVPDRFSGSGSGTDFTLKISRVEAEDVGVYYCSQNTHVPPTFGQGTKVEIERTVAAPSVFIFPPSDEQLKSGTASVVCLLNNFYPREAKVQWKVDNALQSGNSQESVTEQDSKDSTYSLSSTLTLSKADYEKHKVYACEVTHQGLSSPVTKSFNRGEC
8 |  |  |  | 80.8 % of GpH7-A5/GpH7-B3/GpL16-k0 (=100) | 49.7 % of GpH7-A5/GpH7-B3/GpL16-k0 (=100) | GpH7-A5/GpH7-B3 variant L328_18N/GpL16-k0 (He Ab) (antibody, human IgG1, kappa, Heterodimerized antibody with the alteration in one H chain only) heavy 1: not shown heavy 2: not shown light: DIVMTQSPLSLPVTPGEPASISCQASESLVHSNRNTYLHWYLQKPGQSPQLLIYKVSNRFSGVPDRFSGSGSGTDFTLKISRVEAEDVGVYYCSQNTHVPPTFGQGTKVEIERTVAAPSVFIFPPSDEQLKSGTASVVCLLNNFYPREAKVQWKVDNALQSGNSQESVTEQDSKDSTYSLSSTLTLSKADYEKHKVYACEVTHQGLSSPVTKSFNRGEC
9 |  |  |  | 80.6 % of GpH7-A5/GpH7-B3/GpL16-k0 (=100) | 54.3 % of GpH7-A5/GpH7-B3/GpL16-k0 (=100) | GpH7-A5/GpH7-B3 variant L328_16H/GpL16-k0 (He Ab) (antibody, human IgG1, kappa, Heterodimerized antibody with the alteration in one H chain only) heavy 1: not shown heavy 2: not shown light: DIVMTQSPLSLPVTPGEPASISCQASESLVHSNRNTYLHWYLQKPGQSPQLLIYKVSNRFSGVPDRFSGSGSGTDFTLKISRVEAEDVGVYYCSQNTHVPPTFGQGTKVEIERTVAAPSVFIFPPSDEQLKSGTASVVCLLNNFYPREAKVQWKVDNALQSGNSQESVTEQDSKDSTYSLSSTLTLSKADYEKHKVYACEVTHQGLSSPVTKSFNRGEC

Source: patent US20150344570A1 (published 2015)
